The results in this text go back to patent US20220152108A1.

This test deals with sodium taurocholate co-transporting receptor (NTCP), expressed on HepG2 cells (human) (UniProt Q14973). Kind of test: cell-based or functional assay.
Sequence of UniProt Q14973 (Q14973 whole entry): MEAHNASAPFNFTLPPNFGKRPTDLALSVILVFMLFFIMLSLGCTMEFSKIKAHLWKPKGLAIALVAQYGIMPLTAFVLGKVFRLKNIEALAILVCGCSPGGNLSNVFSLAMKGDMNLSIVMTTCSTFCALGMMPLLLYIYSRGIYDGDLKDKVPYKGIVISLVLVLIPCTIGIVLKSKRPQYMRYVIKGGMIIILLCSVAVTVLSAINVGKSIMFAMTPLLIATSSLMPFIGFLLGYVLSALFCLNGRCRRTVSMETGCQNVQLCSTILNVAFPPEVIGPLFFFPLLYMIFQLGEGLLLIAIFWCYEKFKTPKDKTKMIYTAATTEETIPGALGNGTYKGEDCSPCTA

“CAR-PreS1 construct (signal peptide-PreS1-CD8 hinge-CD8 Transmembrane-CD28-4-1BB-CD3zeta-T2A-EGFP), expressed on T cells” gave an IFN gamma expression of CAR-PreS1 T cells co-cultured with HepG2 cells expressing or lacking NTCP of 3 fold and a degranulation (CD107a expression) of CAR-PreS1 T cells co-cultured with HepG2 cells expressing or lacking NTCP of 2 fold.
